The Human Domainome abundance scans (Beltran et al. 2025)
± gives the uncertainty stated by the source.

B1: Transcription factor SOX-11, residues 50 to 117; numbered along this chain, P35716 (parent)
chain: KRPMNAFMVWSKIERRKIMEQSPDMHNAEISKRLGKRWKMLKDSEKIPFIREAERLRLKHMADYPDYK

Variants of: B1
Assay: abundance fitness (aPCA) (normalised: wild type 0, dead -1); higher = more abundant; growth selection in yeast, the domain comes from the species named
Conditions: Homo sapiens

Row | Variant | abundance fitness
1 | R55D | -0.119 ± 0.058
2 | R55K | -0.177 ± 0.15
3 | R55E | -0.017 ± 0.14
4 | R55F | -0.356 ± 0.071
5 | R55C | -0.416 ± 0.057
6 | R55V | -0.343 ± 0.063
7 | R55S | -0.146 ± 0.049
8 | R55Y | -0.43 ± 0.061
9 | R55P | -0.868 ± 0.19
10 | R55I | -0.246 ± 0.067
11 | R55G | -0.313 ± 0.055
12 | R55M | -0.521 ± 0.15
13 | R55H | -0.213 ± 0.06
14 | R55N | -0.087 ± 0.055
15 | R55W | -0.277 ± 0.19
16 | R57Y | -0.248 ± 0.056
17 | R57M | -0.068 ± 0.13
18 | R57P | -0.426 ± 0.11
19 | R57A | 0.023 ± 0.063
20 | R57L | -0.335 ± 0.065
21 | R57T | -0.023 ± 0.07
22 | R57W | -0.114 ± 0.1
23 | R57I | -0.384 ± 0.065
24 | R57G | -0.167 ± 0.059

Row | Variant | abundance fitness
25 | R57V | -0.373 ± 0.066
26 | R57H | -0.126 ± 0.067
27 | R57N | 0.414 ± 0.045
28 | R57D | -0.137 ± 0.073
29 | R57K | 0.137 ± 0.11
30 | R57F | -0.432 ± 0.054
31 | R57E | 0.283 ± 0.13
32 | R57Q | -0.057 ± 0.12
33 | R57C | -0.186 ± 0.058
34 | A62Y | -0.163 ± 0.043
35 | A62D | 0.092 ± 0.05
36 | A62C | -0.062 ± 0.047
37 | A62R | -0.225 ± 0.053
38 | A62G | 0.079 ± 0.05
39 | A62W | -0.43 ± 0.098
40 | A62N | 0.111 ± 0.043
41 | A62Q | 0.146 ± 0.096
42 | A62H | -0.251 ± 0.059
43 | A62F | -0.2 ± 0.042
44 | A62V | -0.139 ± 0.047
45 | A62S | 0.116 ± 0.039
46 | A62L | -0.123 ± 0.044
47 | A62K | -0.085 ± 0.08
48 | A62I | -0.182 ± 0.046

Row | Variant | abundance fitness
49 | A62M | -0.181 ± 0.082
50 | L58S | -0.047 ± 0.046
51 | L58W | -0.222 ± 0.16
52 | L58R | -0.118 ± 0.069
53 | L58H | 0.065 ± 0.06
54 | L58P | -0.473 ± 0.12
55 | L58M | -0.149 ± 0.13
56 | L58I | -0.087 ± 0.054
57 | L58E | -0.294 ± 0.16
58 | L58C | -0.116 ± 0.055
59 | L58T | -0.011 ± 0.071
60 | L58V | -0.101 ± 0.052
61 | L58N | 0.068 ± 0.054
62 | L58D | 0.188 ± 0.056
63 | L58G | -0.076 ± 0.054
64 | L58Y | -0.195 ± 0.055
65 | P65R | -0.495 ± 0.43
66 | P65V | -0.013 ± 0.47
67 | P65Y | -0.41 ± 0.37
68 | P65S | 0.269 ± 0.36
69 | M61W | -0.221 ± 0.16
70 | M61S | 0.047 ± 0.048
71 | M61P | 0.008 ± 0.078
72 | M61N | 0.116 ± 0.053

Row | Variant | abundance fitness
73 | M61V | 0.048 ± 0.057
74 | M61I | 0.011 ± 0.048
75 | M61C | 0.107 ± 0.05
76 | M61D | 0.09 ± 0.059
77 | M61H | -0.086 ± 0.06
78 | M61E | 0.046 ± 0.12
79 | M61Q | 0.077 ± 0.11
80 | M61Y | -0.096 ± 0.052
81 | M61R | 0.033 ± 0.065
82 | M61A | 0.144 ± 0.065
83 | M61T | 0.058 ± 0.06
84 | M61F | -0.292 ± 0.06
85 | M61G | 0.07 ± 0.059
86 | M61K | -0.205 ± 0.18
87 | D63N | 0.113 ± 0.26
88 | K59P | -0.403 ± 0.089
89 | K59A | 0.087 ± 0.062
90 | K59T | 0.075 ± 0.069
91 | K59M | 0.039 ± 0.089
92 | K59L | 0.12 ± 0.053
93 | K59C | -0.099 ± 0.055
94 | K59E | 0.084 ± 0.16
95 | K59N | 0.026 ± 0.053
96 | K59V | 0.012 ± 0.051

Row | Variant | abundance fitness
97 | K59W | -0.323 ± 0.15
98 | K59S | -0.017 ± 0.044
99 | K59I | -0.054 ± 0.054
100 | K59D | -0.052 ± 0.061
101 | K59Y | -0.192 ± 0.056
102 | K59F | -0.166 ± 0.054
103 | K59H | 0.106 ± 0.06
104 | H60W | -0.607 ± 0.18
105 | H60F | -0.078 ± 0.058
106 | H60M | -0.114 ± 0.19
107 | H60V | -0.047 ± 0.061
108 | H60Q | 0.222 ± 0.12
109 | H60I | -0.178 ± 0.066
110 | H60L | -0.273 ± 0.068
111 | H60C | -0.031 ± 0.06
112 | H60S | -0.017 ± 0.05
113 | H60Y | -0.03 ± 0.053
114 | H60E | 0.406 ± 0.14
115 | H60P | -0.142 ± 0.079
116 | H60R | -0.227 ± 0.064
117 | H60N | 0.058 ± 0.055
118 | H60G | 0.142 ± 0.055
119 | H60T | 0.103 ± 0.074
120 | H60D | 0.136 ± 0.062

Row | Variant | abundance fitness
121 | L56Q | -0.26 ± 0.18
122 | L56N | -0.347 ± 0.06
123 | L56C | -0.533 ± 0.078
124 | L56F | -0.377 ± 0.056
125 | L56K | -0.664 ± 0.23
126 | L56M | 0.079 ± 0.16
127 | L56S | -0.199 ± 0.051
128 | L56D | -0.247 ± 0.069
129 | L56W | -0.888 ± 0.26
130 | L56R | -0.532 ± 0.084
131 | L56G | -0.39 ± 0.066
132 | L56E | -0.212 ± 0.18
133 | L56T | -0.267 ± 0.076
134 | L56V | -0.528 ± 0.063
135 | L56I | -0.176 ± 0.058
136 | L56P | -1.1 ± 0.22
137 | L56Y | -0.386 ± 0.078
138 | D66S | -0.368 ± 0.091
139 | D66F | -0.265 ± 0.11
140 | D66Y | -0.36 ± 0.087
141 | D66R | -0.38 ± 0.31
142 | D66G | -0.027 ± 0.12
143 | D66E | 0.247 ± 0.18
144 | D66I | -0.382 ± 0.13

Row | Variant | abundance fitness
145 | D66Q | -0.115 ± 0.29
146 | D66L | -0.226 ± 0.11
147 | D66H | -0.115 ± 0.18
148 | D66P | -0.234 ± 0.28
149 | D66V | -0.545 ± 0.18
150 | D66C | -0.278 ± 0.13
151 | D66A | -0.206 ± 0.14
152 | D66T | -0.657 ± 0.24
153 | E54L | -0.601 ± 0.083
154 | E54V | -0.671 ± 0.074
155 | E54T | -0.7 ± 0.12
156 | E54Q | -0.364 ± 0.16
157 | E54H | -0.641 ± 0.097
158 | E54Y | -0.335 ± 0.067
159 | E54R | -0.74 ± 0.1
160 | E54W | -0.576 ± 0.36
161 | E54I | -0.751 ± 0.091
162 | E54P | -0.925 ± 0.16
163 | E54K | -0.826 ± 0.24
164 | E54M | -0.833 ± 0.34
165 | E54N | -0.241 ± 0.063
166 | Y67C | -0.048 ± 0.1
167 | Y67A | 0.149 ± 0.14
